# According to US9629804B2, “Lipid formulations for delivery of messenger RNA” (Shire Human Genetic Therapies, Inc., priority 2013, dated 2017):
# B1: hSMN mRNA: codon-optimized human Survival of Motor Neuron-1 messenger RNA (SEQ ID NO: 4), in vitro transcribed, Cap 1, poly(A) tail (nucleic acid)
# chain: GGACAGAUCGCCUGGAGACGCCAUCCACGCUGUUUUGACCUCCAUAGAAGACACCGGGACCGAUCCAGCCUCCGCGGCCGGGAACGGUGCAUUGGAACGCGGAUUCCCCGUGCCAAGAGUGACUCACCGUCCUUGACACGAUGGCCAUGAGCAGCGGAGGCAGCGGCGGAGGAGUGCCCGAGCAGGAGGACAGCGUGCUGUUCAGGAGAGGCACCGGCCAGAGCGAUGACAGCGAUAUCUGGGACGAUACCGCUCUGAUCAAGGCCUACGACAAGGCCGUGGCCAGCUUCAAGCACGCCCUGAAAAACGGCGACAUCUGCGAGACCAGCGGCAAGCCCAAGACAACCCCCAAGAGAAAGCCCGCCAAGAAGAAUAAGAGCCAGAAAAAGAACACCGCCGCCAGCCUGCAGCAGUGGAAGGUGGGCGACAAGUGCAGCGCCAUCUGGAGCGAGGACGGCUGCAUCUACCCCGCCACCAUCGCCAGCAUCGACUUCAAGAGAGAGACCUGCGUGGUCGUGUACACCGGCUACGGCAACAGAGAGGAGCAGAACCUGAGCGACCUGCUGAGCCCCAUUUGUGAGGUGGCCAAUAACAUCGAACAGAACGCCCAGGAGAACGAGAAUGAAAGCCAGGUGAGCACCGACGAGAGCGAGAACAGCAGAUCUCCUGGCAACAAGAGCGACAACAUCAAGCCUAAGUCUGCCCCUUGGAACAGCUUCCUGCCCCCUCCUCCACCCAUGCCCGGACCCAGACUGGGACCCGGAAAACCUGGCCUGAAGUUCAACGGACCACCUCCCCCUCCACCUCCUCCCCCACCUCAUCUCCUGAGCUGCUGGCUGCCACCCUUCCCCAGCGGACCCCCUAUCAUCCCACCACCCCCUCCCAUCUGCCCCGACAGCCUGGACGACGCCGAUGCCCUGGGCAGCAUGCUGAUCAGCUGGUACAUGAGCGGCUACCACACAGGAUACUACAUGGGCUUCAGACAGAACCAGAAGGAGGGCAGAUGCUCCCACUCCCUGAACUGACGGGUGGCAUCCCUGUGACCCCUCCCCAGUGCCUCUCCUGGCCCUGGAAGUUGCCACUCCAGUGCCCACCAGCCUUGUCCUAAUAAAAUUAAGUUGCAUCAAAGCU
# modifications: Cap 1, poly(A) tail
# System: BHK-21 cells
# Experiment: hSMN-1 western blot of BHK-21 cells transfected with hSMN mRNA
# Type: cell-based
# Settings: one microgram mRNA, Lipofectamine 2000, 16-18 hours post-transfection
# Description: Standard western blot procedures were followed employing various antibodies that recognizes hSMN protein, such as: (A) anti-SMN 4F11 antibody at 1:1,000 dilution; (B) Pierce PA5-27309a-SMN antibody at 1:1,000 dilution; and (C) LSBio C138149a-SMN antibody at 1:1,000 dilution. For each experiment one microgram of hSMN mRNA was transfected into ˜1×10^6 BHK-21 cells using Lipofectamine 2000. Cells were treated with OptiMem and harvested 16-18 hours post-transfection. Cell lysates were harvested, processed and loaded on to an 8-16% Tris Glycine gel. The gel was transferred using a PVDF membrane and treated with the respective primary antibody. Goat anti-mouse HRP antibody was used as the secondary antibody at 1:10,000 dilution for 45 minutes at room temperature followed by washing and development.
molecule,measurement,value
B1,western blot signal for hSMN-1 protein in transfected BHK-21 cells,strong signal for hSMN-1
